Results reported in patent US20080200654A1 (KIRIN PHARMA, published 2008).

Tests used:
[1] = target: T1, A33 antigen (full-length human A33) (human, UniProt Q99795 22-319); assay: FCM competition on COLO205 cells; antibody 1 µg/ml, competitor mouse anti-A33 antibody 100 µg/ml
T1 construct: Class I cell membrane protein of the Ig superfamily; also called GPA33; human A33 antigen
T1 sequence: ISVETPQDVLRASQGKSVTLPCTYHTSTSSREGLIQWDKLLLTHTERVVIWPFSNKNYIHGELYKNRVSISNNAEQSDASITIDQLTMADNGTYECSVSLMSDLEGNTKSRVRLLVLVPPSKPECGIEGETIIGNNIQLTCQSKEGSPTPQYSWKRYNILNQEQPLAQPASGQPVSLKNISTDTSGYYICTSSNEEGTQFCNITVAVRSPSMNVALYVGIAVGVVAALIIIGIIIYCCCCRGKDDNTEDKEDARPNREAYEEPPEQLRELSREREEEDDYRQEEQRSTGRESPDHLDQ
Experimental: Whether or not each type of purified monoclonal antibody obtained in Example 8 recognizes an epitope similar to that of the mouse anti-A33 antibody was examined by a competition test using FCM. The COLO205 cell line was suspended at a concentration of 2×10⁶/ml in a PBS Staining Buffer (SB) containing 0.1% NaN₃ and 2% FCS. The cell suspension (50 μl/well) was dispensed in a 96-well round bottom plate (produced by Becton, Dickinson and Company). The purified mouse anti-A33 antibody prepared in Example 1 was not added or added at a concentration of 100 μg/ml to the wells containing each type of purified monoclonal antibody (1 μg/ml and 50 μl), followed by 30 minutes of incubation on ice. A mouse negative control (containing no purified anti-A33 antibody added thereto) was prepared as follows. A human IgG1 antibody (produced by Sigma) was adjusted at a concentration of 1 μg/ml with SB and then 50 μl of the solution was added, followed by 30 minutes of incubation on ice. The resultant was washed twice with SB and then 50 μl of FITC fluorescence-labeled goat anti-human IgG F(ab′)₂ antibody (produced by IBL) was added, followed by 30 minutes of incubation on ice. The resultant was washed once with SB and then the resultant was suspended in 300 μl of a FACS buffer. The mean fluorescence intensity of each cell line was measured by FACS (FACScan produced by Becton, Dickinson and Company). The inhibition (%) between each type of purified monoclonal antibody and the mouse A33 antibody was calculated by the following formula: […]

[2] = target: T1, A33 antigen (full-length human A33); assay: FCM on LoVo cells; grade = ng/ml to reach half MFI 25 (+++ 10<=x<100, ++ 100<=x<1000, + 1000<=x<10000)
Description: (§1) The reactivity of each type of purified monoclonal antibody obtained in Example 8 to A33-antigen-expressing human colorectal cancer cell line COLO205 cells, LoVo cells (ATCC No. CCL-229), LS174T cells (ATCC No. CL-188), and NCI-H508 cells (ATCC No. CCL-253) was examined by FCM. Human colorectal cancer cell line HT-29 cells (ATCC No. HTB-38) expressing no A33 antigen were also examined as negative control cells. Each cell line was suspended at a concentration of 2×10⁶/ml in a PBS Staining Buffer (SB) containing 0.1% NaN₃ and 2% FCS. The cell suspension (50 μl/well) was dispensed in a 96-well round bottom plate (produced by Becton, Dickinson and Company). 50 μl of each type of purified monoclonal antibody (adjusted using SB at a concentration of 2000, 400, 80, or 16 ng/ml) was added, and then incubation was performed on ice for 30 minutes. A negative control was prepared depending on each subclass. Specifically, a human IgG1 antibody (produced by Sigma) was adjusted using SB at a concentration of 2000, 400, 80, or 16 ng/ml. 50 μl of the solution was added, followed by 30 minutes of incubation on ice. The resultant was washed twice with SB and then 50 μl of an FITC fluorescence-labeled goat anti-human IgG F(ab′)₂ antibody (produced by Southern Biotech), followed by 30 minutes of incubation on ice. The resultant was washed once with SB and then the resultant was suspended in 300 μl of a FACS buffer. The mean fluorescence intensity of each cell line was measured by FACS (FACScan produced by Becton, Dickinson and Company).
(§2) For COLO205 cells, the half value of the mean fluorescence intensity was determined to be 90. For LoVo cells, the half value of the mean fluorescence intensity was determined to be 25. […] When an antibody concentration required to reach such value was 10<=x<100 ng/ml, the reactivity was represented by +++, when the same was 100<=x<1000 ng/ml, the reactivity was represented by ++, and when the same was 1000<=x<10000 ng/ml, the reactivity was represented by +. When no binding was observed, the reactivity was represented by −.

[3] = target: T1, A33 antigen (full-length human A33); assay: FCM on COLO205 cells; grade = ng/ml to reach half MFI 90 (+++ 10<=x<100, ++ 100<=x<1000, + 1000<=x<10000)
Description: as §1, §2

[4] = target: T1, A33 antigen (full-length human A33); assay: FCM on LS174T cells; grade = ng/ml to reach half MFI 125 (+++ 10<=x<100, ++ 100<=x<1000, + 1000<=x<10000)
Description: as §1, §2

[5] = target: T1, A33 antigen (full-length human A33); assay: FCM on NCI-H508 cells; grade = ng/ml to reach half MFI 125 (+++ 10<=x<100, ++ 100<=x<1000, + 1000<=x<10000)
Description: as §1, §2

Row | Binder | Inhibition (%) [1] | antibody concentration required to reach half value of mean fluorescence intensity [2] | antibody concentration required to reach half value of mean fluorescence intensity [3] | antibody concentration required to reach half value of mean fluorescence intensity [4] | antibody concentration required to reach half value of mean fluorescence intensity [5]
1 | 125M165DAAA (antibody, V domains shown, Human IgG1 kappa antibody purified from the hybridoma (FERM BP-10106); also called 125M165DAAA antibody) VH: QVQLVESGGGVVQPGRSLRLSCAASGFTFSYYGMHWVRQAPGKGLEWVAVIWYDGSNKYYADSVKGRFTISRDNSKKTLYLQMNSLRAEDTAVYYCARDGHSSGWGDFQHWGQGTLVTVSS VL: EIVLTQSPATLSLSPGERATLSCRASQSVSSSLAWYQQKPGQAPRLLIYDASNRATGIPARFSGSGSGTDFTLTISSLEPEDFAIYYCQQRSNWPPTFGQGTKVEIK | 96% | 10 to 100 ng/mL | 10 to 100 ng/mL | 100 to 1000 ng/mL | 100 to 1000 ng/mL
2 | 125M96ABA (antibody, V domains shown, Human IgG1 kappa antibody purified from the hybridoma (FERM BP-10108); also called 125M96ABA antibody) VH: QLQLQESGPGLVKPSETLSLTCTVSGGSISTSSYYWGWIRQPPGKGLEWIGTIYYNGSTYYSPSLKSRVSISVDTSKNQFSLKLSSVTAADTSVYYCARQGYDIKINIDVWGQGTTVTVSS VL: EIVLTQSPATLSLSPGERATLSCRASQSVSSYLAWYQQKPGQAPRLLIYVASNRATGIPARFSGSGSGTDFTLTISSLEPEDFAVYYCQQRSNWPLTFGGGTKVEIK | 22.8% | 10 to 100 ng/mL | 10 to 100 ng/mL | 100 to 1000 ng/mL | 100 to 1000 ng/mL
3 | 125N26F6AA (antibody, human IgG1, kappa, V domains shown, Human IgG1 kappa antibody purified from hybridoma 125N26F6AA (FERM BP-10109); also called 125N26F6AA antibody) VH: QVQLVESGGGVVQPGRSLRLSCAASGFTFSHYGMHWVRQAPGKGLEWVALIWYDGSNKYYADSVKGRFTISRDNSKNTLYLQMNSLRAEDTAVYYCARDPLAAGTSYFDYWGQGTLVTVSS VL: EIVLTQSPDFQSVTPKEKVTITCRASQSIGSSLHWYQQKPDQSPKLLIKYASQSFSGVPSRFSGSGSGTDFTLTINSLEAEDAAAYYCHQSSSLPFTFGPGTKVDIKR | 98% | 10 to 100 ng/mL | 10 to 100 ng/mL | 100 to 1000 ng/mL | 100 to 1000 ng/mL
4 | 125M10AA (antibody, human IgG1, kappa, V domains shown, Human IgG1 kappa antibody purified from hybridoma 125M10AA (FERM BP-10107); also called 125M10AA antibody) VH: QLQVQESGPGLVKPSETLSLICTVSGGSIRTSGYYWGWFRQPPGKGLEWIGTSHNSGSTYYNPSLKSRVTISVDTSKNQFSLKLNSVTAADTAVYYCARQGYDFKVNIDVWGQGTTVTVSS VL: EIVLTQSPATLSLSPGERATLSCRASQSVSSYLAWYQQKPGQAPRLLIYDASNRATGIPARFSGSGSGTDFTLTISSLEPEDFAVYYCQQRSNWPLTFGGGTKVEIKR | 5% | 10 to 100 ng/mL | 10 to 100 ng/mL | 10 to 100 ng/mL | 10 to 100 ng/mL
5 | 263A17 (antibody, V domains shown, Human IgG1 kappa antibody purified from the hybridoma; also called 263A17 antibody) VH: EVQLLESGGGLVQPGGSLRLSCAASGFTFSSYAMSWIRQAPGKGLEWVSAISASGGSTYYADSVKGRFTISRDNSKNTLYLQMNSLRAEDTAVYYCAKDRIVGATNYYYGMDVWGQGTTVTVSS VL: DIQMTQSPPSVSASVGDRVTITCRASQGISSWLAWYQHKPGKAPKLLIYGASSLQSGVPSRFSGSGSGTDFTLTISSLQPEDFATYYCQQANSFPITFGQGTRLEIK | 3.7% | 100 to 1000 ng/mL | 100 to 1000 ng/mL | 100 to 1000 ng/mL | 100 to 1000 ng/mL
6 | 125Q54AAAA (antibody, V domains shown, Human IgG1 kappa antibody purified from the hybridoma (FERM BP-10105); also called 125Q54AAAA antibody) VH: EVQLLESGGGLVQPGGSLRLSCAASGFTFSSYAMSWVRQAPGKGLEWVSDISGSGGYTYYADSVKGRFTISRDNSKNTLYLQMNSLRAEDTAVYYCAKTGDGSGSYSPDSWGQGTLVTVSS VL: DIQMTQSPSSLSASVGDRVTITCRASQGISRWLAWYQQKPEKAPKSLIYAASSLQSGVPSRFSGSGSGTDFTLTISSLQPEDFATYYCQQYNSYPYTFGQGTKLEIK | 46.5% | 10 to 100 ng/mL | 10 to 100 ng/mL | 100 to 1000 ng/mL | 100 to 1000 ng/mL
7 | 125R5AAAA (antibody, V domains shown, Human IgG1 kappa antibody purified from the hybridoma (FERM BP-10103); also called 125R5AAAA antibody) VH: EVQLLESGGGLVQPGGSLRLSCAASGFTFSSYAMSWVRQAPGKGLEWVSDISGSGGYTYYADSVKGRFTISRDNSKKTLYLQMNSLRAEDTAVYYCAKTGDGSGSYSPDYWGQGTLVTVSS VL: DIQMTQSPSSLSASVGDRVTITCRASQGISSWLAWYQQKPEKAPKSLIYAASSLQSGVPSRFSGSGSGTDFTLTISSLQPEDFATYYCQQYNSYPYTFGQGTKLEIK | 63.9% | 10 to 100 ng/mL | 10 to 100 ng/mL | 100 to 1000 ng/mL | 100 to 1000 ng/mL
8 | 125Q47BA (antibody, V domains shown, Human IgG1 kappa antibody purified from the hybridoma (FERM BP-10104); also called 125Q47BA antibody) VH: EVQLLESGGGLVQPGGSLRLSCAASGFTFSSYAMTWVRQAPGKGLEWVSDISGSGGYTYYADSVKGRFTISRDNSKNTLYLQMNSLRAEDTAVYYCAKTGAGSGSYSPDSWGQGTLVTVSS VL: DIQMTQSPSSLSASVGDRVTITCRASQGISSWLAWYQQKPEKAPKSLIYAASSLQSGVPSRFSGSGSGTDFTLTISSLQPEDFATYYCQQYNSYPYTFGQGTKLEIK | 64.1% | 10 to 100 ng/mL | 10 to 100 ng/mL | 100 to 1000 ng/mL | 100 to 1000 ng/mL
